Reference: article doi:10.1101/2023.06.28.546941 (bioRxiv, 2023)

T1: MEF2 (UniProt P40791 1-540)
T1 sequence: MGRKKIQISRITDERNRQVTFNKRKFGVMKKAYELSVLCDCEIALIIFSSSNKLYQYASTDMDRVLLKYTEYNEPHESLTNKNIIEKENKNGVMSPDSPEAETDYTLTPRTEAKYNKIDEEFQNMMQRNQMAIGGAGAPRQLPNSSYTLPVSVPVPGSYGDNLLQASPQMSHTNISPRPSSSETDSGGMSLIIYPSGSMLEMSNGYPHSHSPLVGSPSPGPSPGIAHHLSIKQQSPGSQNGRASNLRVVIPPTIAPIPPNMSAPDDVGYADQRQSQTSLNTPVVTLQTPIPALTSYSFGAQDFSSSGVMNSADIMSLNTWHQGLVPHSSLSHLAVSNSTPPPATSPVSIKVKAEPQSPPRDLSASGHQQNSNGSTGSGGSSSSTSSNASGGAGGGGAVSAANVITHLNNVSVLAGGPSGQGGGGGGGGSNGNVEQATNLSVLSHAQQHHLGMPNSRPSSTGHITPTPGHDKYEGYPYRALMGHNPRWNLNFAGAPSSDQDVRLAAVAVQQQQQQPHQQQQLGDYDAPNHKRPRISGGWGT

T2: MEF2 MADS plus MEF2 domain (amino acids 1-90) (Drosophila, UniProt P40791 1-90)
T2 sequence (looked up): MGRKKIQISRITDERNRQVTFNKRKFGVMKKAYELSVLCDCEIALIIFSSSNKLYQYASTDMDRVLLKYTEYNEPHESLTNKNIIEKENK


Assays:
[1] = target: T1, MEF2; assay: competition
[2] = target: T2, MEF2 MADS plus MEF2 domain (amino acids …); assay: pull-down

binding result [2]	Binder	binding result [1]
–	M1+T1 M1mut (dsDNA) DNA 1: GGTGTCGTCTGTTGAAGTGTGAACATTAATGCCTAGATCTAAAGCGATAAAA DNA 2: GGTTTTATCGCTTTAGATCTAGGCATTAATGTTCACACTTCAACAGACGACA	no binding
binds	MBP-fused Tin homeodomain (amino acids 301-360) (domain or fragment, Drosophila, UniProt P22711 301-360, looked up) KRKPRVLFSQAQVLELECRFRLKKYLTGAEREIIAQKLNLSATQVKIWFQNRRYKSKRGD	–
